Laboratory results: patent US20160002343A1 (AbbVie / Abbott, published 2016)
One block for each binder: values may come before it.

Columns and labels:
TNF = target: T1, TNF (mouse, UniProt P06804 80-235); experiment: cell-based or functional assay
T1 sequence (looked up): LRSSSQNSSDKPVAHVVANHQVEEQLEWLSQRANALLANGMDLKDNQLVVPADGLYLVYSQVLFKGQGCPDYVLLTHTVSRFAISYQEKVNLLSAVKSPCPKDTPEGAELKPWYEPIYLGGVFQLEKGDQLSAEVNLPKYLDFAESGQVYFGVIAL

[1] = target: T2, mouse Transferrin Receptor overexpressed on Hek 293 cells (mouse, UniProt Q62351 1-763); experiment: 293/mTfR cell-based assay
T2 construct: whole, on cells; also called mTfR; Hek293/mTfR
Description: (§1) Meso-scale Discovery (MSD) Electrochemiluminescence (ECL) assays to screen for antibodies or DVD-Ig proteins that bind a desired target antigen expressed on the cell surface were performed as follows: Hek 293 cells overexpressing mouse Transferrin Receptor were added onto MSD 96-well plates (MSD Cat# L11 XB-3, lot#2290-EA). The plates which were blocked using blocking buffer (30% FBS Serum (Hyclone) in PBS) at 37° C. for 1 hour. After incubating at room temperature (RT) for 30 minutes with mild agitation, plates were washed with DPBS 3 times and Abs/DVD-Ig proteins (10,000 ng/ml) were added. After incubating for 1 hour at RT, plates were washed 3 times with DPBS and 25 μl of Goat anti-human Sulfo TAG (MSD Cat# R32AC-, Lot# W001162) at 1 μg/ml was added. Following incubation at RT for 1 hour, plates were washed and MSD read buffer was added before reading on a MSD SECTOR Imager 6000. EC50 values were obtained using Xlfit4 software package.

rmTfR (123-763) [2] = target: T3, rmTfR (123-763) (mouse, UniProt Q62351 123-763); experiment: Biacore SPR, DVD-Ig captured by anti-human IgG Fc, rmTfR (123-763) in solution
T3 construct: range 123-763; also called recombinant mouse transferrin receptor 123-763
Description: The BIACORE assay (Biacore, Inc, Piscataway, N.J.) was used to determine the affinity of antibodies or DVD-Ig proteins with kinetic measurements of on-rate and off-rate constants. Binding of antibodies or DVD-Ig protein to a target antigen (for example, a purified recombinant target antigen) was determined by surface plasmon resonance-based measurements with a Biacore® 1000 or 3000 instrument (Biacore® AB, Uppsala, Sweden) using running HBS-EP (10 mM HEPES [pH 7.4], 150 mM NaCl, 3 mM EDTA, and 0.005% surfactant P20) at 25° C. All chemicals were obtained from Biacore® AB (Uppsala, Sweden) or otherwise from a different source as described in the text. For example, approximately 5000 RU of goat anti-human IgG, (Fcγ), fragment specific polyclonal antibody (Pierce Biotechnology Inc, Rockford, Ill.) diluted in 10 mM sodium acetate (pH 4.5) was directly immobilized across a CM5 research grade biosensor chip using a standard amine coupling kit according to manufacturer's instructions and procedures at 25 μg/ml. Unreacted moieties on the biosensor surface were blocked with ethanolamine. Modified carboxymethyl dextran surface in flowcell 2 and 4 was used as a reaction surface. Unmodified carboxymethyl dextran without goat anti-human IgG in flow cell 1 and 3 was used as the reference surface. For kinetic analysis, rate equations derived from the 1:1 Langmuir binding model were fitted simultaneously to association and dissociation phases of all eight injections (using global fit analysis) with the use of BIAevaluation 4.0.1 software. […] The association and dissociation rate constants, kon (M⁻¹ s⁻¹) and koff (s⁻¹) were determined under a continuous flow rate of 25 μl/minute. […] The equilibrium dissociation constant (M) of the reaction between antibodies or DVD-Ig proteins and the target antigen was then calculated from the kinetic rate constants by the following formula: KD=koff/kon. Binding was recorded as a function of time and kinetic rate constants were calculated.

[3] = target: T2, mouse Transferrin Receptor …; experiment: cell-based MSD-ECL binding, Hek293/mTfR cells
Description: as §1

[4] = target: mouse Transferrin Receptor overexpressed on Hek 293 cells (mouse) (UniProt Q62351); experiment: mTfR binding cell-based assay
rmTfR (123-763) [5] = target: T3, rmTfR (123-763); experiment: Biacore SPR, antibody captured by anti-human IgG Fc, rmTfR (123-763) in solution
Description: The BIACORE assay (Biacore, Inc, Piscataway, N.J.) was used to determine the affinity of antibodies or DVD-Ig proteins with kinetic measurements of on-rate and off-rate constants. Binding of antibodies or DVD-Ig protein to a target antigen (for example, a purified recombinant target antigen) was determined by surface plasmon resonance-based measurements with a Biacore® 1000 or 3000 instrument (Biacore® AB, Uppsala, Sweden) using running HBS-EP (10 mM HEPES [pH 7.4], 150 mM NaCl, 3 mM EDTA, and 0.005% surfactant P20) at 25° C. All chemicals were obtained from Biacore® AB (Uppsala, Sweden) or otherwise from a different source as described in the text. For example, approximately 5000 RU of goat anti-human IgG, (Fcγ), fragment specific polyclonal antibody (Pierce Biotechnology Inc, Rockford, Ill.) diluted in 10 mM sodium acetate (pH 4.5) was directly immobilized across a CM5 research grade biosensor chip using a standard amine coupling kit according to manufacturer's instructions and procedures at 25 μg/ml. Unreacted moieties on the biosensor surface were blocked with ethanolamine. Modified carboxymethyl dextran surface in flowcell 2 and 4 was used as a reaction surface. Unmodified carboxymethyl dextran without goat anti-human IgG in flow cell 1 and 3 was used as the reference surface. For kinetic analysis, rate equations derived from the 1:1 Langmuir binding model were fitted simultaneously to association and dissociation phases of all eight injections (using global fit analysis) with the use of BIAevaluation 4.0.1 software. Purified antibodies or DVD-Ig proteins were diluted in HEPES-buffered saline for capture across goat anti-human IgG specific reaction surfaces. Antibodies or DVD-Ig proteins to be captured as ligands (25 μg/ml) were injected over reaction matrices at a flow rate of 5 μl/minute. The association and dissociation rate constants, kon (M⁻¹ s⁻¹) and koff (s⁻¹) were determined under a continuous flow rate of 25 μl/minute. Rate constants were derived by making kinetic binding measurements at different antigen concentrations ranging from 10-200 nM. The equilibrium dissociation constant (M) of the reaction between antibodies or DVD-Ig proteins and the target antigen was then calculated from the kinetic rate constants by the following formula: KD=koff/kon. Binding was recorded as a function of time and kinetic rate constants were calculated.

[6] = target: mouse Transferrin Receptor overexpressed on Hek 293 cells (mouse) (UniProt Q62351); experiment: cell-based MSD-ECL binding, Hek293/mTfR cells
[7] = target: T2, mouse Transferrin Receptor …; experiment: mTfR binding cell-based assay
Description: as §1

T2 sequence (Q62351 whole entry): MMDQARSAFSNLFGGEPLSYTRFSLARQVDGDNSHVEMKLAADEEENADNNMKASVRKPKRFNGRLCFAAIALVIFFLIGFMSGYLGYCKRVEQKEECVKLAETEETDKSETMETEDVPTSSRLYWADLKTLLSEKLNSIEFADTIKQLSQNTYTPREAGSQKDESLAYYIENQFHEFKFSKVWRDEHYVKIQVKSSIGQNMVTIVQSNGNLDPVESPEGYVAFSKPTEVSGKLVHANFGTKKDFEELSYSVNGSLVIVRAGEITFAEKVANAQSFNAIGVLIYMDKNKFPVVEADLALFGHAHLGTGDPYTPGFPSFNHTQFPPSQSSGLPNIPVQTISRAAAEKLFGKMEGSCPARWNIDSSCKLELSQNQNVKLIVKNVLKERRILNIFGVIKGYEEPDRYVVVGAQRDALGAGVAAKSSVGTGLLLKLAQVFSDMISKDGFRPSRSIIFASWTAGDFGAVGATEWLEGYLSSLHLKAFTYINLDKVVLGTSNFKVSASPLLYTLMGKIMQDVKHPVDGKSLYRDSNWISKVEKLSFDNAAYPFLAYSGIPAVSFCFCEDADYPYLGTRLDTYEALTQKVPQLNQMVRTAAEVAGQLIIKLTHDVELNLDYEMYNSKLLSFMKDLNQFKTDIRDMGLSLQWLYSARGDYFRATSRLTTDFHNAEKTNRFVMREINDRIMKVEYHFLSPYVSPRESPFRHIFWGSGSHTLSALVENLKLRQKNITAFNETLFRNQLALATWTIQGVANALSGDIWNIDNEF
T3 sequence (Q62351 123-763): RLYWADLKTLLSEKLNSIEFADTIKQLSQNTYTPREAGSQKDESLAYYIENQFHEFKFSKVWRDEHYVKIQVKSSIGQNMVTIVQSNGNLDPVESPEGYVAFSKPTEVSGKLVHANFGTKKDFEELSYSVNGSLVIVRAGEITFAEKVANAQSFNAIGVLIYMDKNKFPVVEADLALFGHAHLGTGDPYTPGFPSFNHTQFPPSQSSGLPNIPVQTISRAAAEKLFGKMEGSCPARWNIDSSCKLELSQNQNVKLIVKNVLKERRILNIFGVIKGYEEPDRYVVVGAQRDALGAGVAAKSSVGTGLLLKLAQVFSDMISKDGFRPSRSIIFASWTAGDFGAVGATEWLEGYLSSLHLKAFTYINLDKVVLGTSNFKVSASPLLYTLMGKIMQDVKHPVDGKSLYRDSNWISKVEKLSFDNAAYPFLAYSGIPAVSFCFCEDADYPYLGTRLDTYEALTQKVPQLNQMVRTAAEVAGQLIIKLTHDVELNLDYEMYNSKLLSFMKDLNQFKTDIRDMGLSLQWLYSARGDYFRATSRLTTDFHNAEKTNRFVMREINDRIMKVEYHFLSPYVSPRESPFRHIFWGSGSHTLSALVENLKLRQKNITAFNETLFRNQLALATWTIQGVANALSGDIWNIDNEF
Sequence of mouse Transferrin Receptor overexpressed on Hek 293 cells (mouse) (Q62351 whole entry): as the sequence (Q62351 whole entry) above

L929 TNF Neutralization assay IC50 (TNF): 4940 pM
EC50 [1]: 3760 pM
B1: muTfR(AB405)-SL-muTNF(8C11) (bispecific antibody)
VH: QVQLVQSGAEVKKPGASVKVSCKASGFTFSNYGMHWIRQAPGQGLEWIAMIYYDSSKMNYADTVKGRFTITRDNSTNTLYMELSSLRSEDTAVYYCAVPTSHYVVDVWGQGTTVTVSSASTKGPEFQLQQSGPELVKPGASVRISCKASGYSFTDYNMNWVKQSNGKSLEWVGVINPNYGSSTYNQKFKGKATLTVDQSSSTAYMQLNSLTSEDSAVYYCARKWGQLGRGFFDVWGTGTTVTVSS
VL: EIVMTQSPATLSVSPGERATLSCQASQDIGNWLAWYQQKPGQSPRLLIYGATSLADGVPARFSGSRSGTEFTLTISSLQSEDFAVYYCLQAYNTPWTFGGGTKVEIKRTVAAPSVFIFPPQIVLSQSPAILSASPGEKVTMTCRASSSVSYMHWFQQKPGSSPKPWIYATSNLASGVPARFSGSGSGTSYSLTISRVEAEDAATYYCQQWSSSPLTFGAGTKLELK
notes: DVD-Ig; outer AB405 (TfR), inner 8C11 (TNF); also called TfR(AB405)-SL-TNF DVD-Ig protein; copies: 2 + 2

Kd (rmTfR (123-763) [2]): 1700 pM
koff (rmTfR (123-763) [2]): 4.8e-05 s⁻¹
kon (rmTfR (123-763) [2]): 28000 M⁻¹ s⁻¹
EC50 [3]: 150 pM
B2: DVD2360 (bispecific antibody)
VH: EVQLVESGGGLVQPGGSLRLSCAASGFTFSNYGMHWIRQAPGKGLEWIAMIYYDSSKMNYADTVKGRFTISRDNAKNSLYLQMNSLRAEDTAVYYCAVPTSHYVVDVWGQGTTVTVSSASTKGPEVQLLESGGGLVQPGGSLRLSCAASGFTFSNYGMSWVRQAPGKGLEWVASIRSGGGRTYYSDNVKGRFTISRDNSKNTLYLQMNSLRAEDTAVYYCVRYDHYSGSSDYWGQGTLVTVSS
VL: EIVMTQSPATLSVSPGERATLSCQASQDIGNWLAWYQQKPGQSPRLLIYGATSLADGVPARFSGSRSGTEFTLTISSLQSEDFAVYYCLQAYNTPWTFGGGTKVEIKRTVAAPDVVMTQSPLSLPVTPGEPASISCKSSQSLLDSDGKTYLNWLLQKPGQSPQRLIYLVSKLDSGVPDRFSGSGSGTDFTLKISRVEAEDVGVYYCWQGTHFPRTFGQGTKVEIK
notes: DVD-Ig

EC50 [4]: 60 pM
Kd (rmTfR (123-763) [5]): 3700 pM
koff (rmTfR (123-763) [5]): 6.12e-05 s⁻¹
kon (rmTfR (123-763) [5]): 16400 M⁻¹ s⁻¹
EC50 [6]: 60 pM
B3: AB402 (antibody, from another filing, V domains shown)
VH: EVQLVESGGGLVQPGGSLRLSCAASGFTFSNYGMHWIRQAPGKGLEWIAMIYYDSSKMNYADTVKGRFTISRDNAKNSLYLQMNSLRAEDTAVYYCAVPTSHYVVDVWGQGTTVTVSS
VL: AIQMTQSPSSLSASVGDRVTITCQASQDIGNWLAWYQQKPGKSPKLLIYGATSLADGVPSRFSGSRSGTDFTLTISSLQPEDFATYYCLQAYNTPWTFGGGTKVEIKR

EC50 [7]: 90 pM
Kd (rmTfR (123-763) [5]): 3800 pM
koff (rmTfR (123-763) [5]): 8.39e-05 s⁻¹
kon (rmTfR (123-763) [5]): 22000 M⁻¹ s⁻¹
EC50 [3]: 90 pM
B4: AB403 (antibody, V domains shown)
VH: B3 VH
VL: EIVMTQSPATLSVSPGERATLSCQASQDIGNWLAWYQQKPGQSPRLLIYGATSLADGVPARFSGSRSGTEFTLTISSLQSEDFAVYYCLQAYNTPWTFGGGTKVEIK
notes: also called humanized variant of AB221
